The values that follow come from patent US20160168251A1 (MorphoSys, published 2016).

In experiment [1] the target is T1, human NPRA on HEK293 cells bound to ANP (human, UniProt P01160 124-151).
T1 sequence: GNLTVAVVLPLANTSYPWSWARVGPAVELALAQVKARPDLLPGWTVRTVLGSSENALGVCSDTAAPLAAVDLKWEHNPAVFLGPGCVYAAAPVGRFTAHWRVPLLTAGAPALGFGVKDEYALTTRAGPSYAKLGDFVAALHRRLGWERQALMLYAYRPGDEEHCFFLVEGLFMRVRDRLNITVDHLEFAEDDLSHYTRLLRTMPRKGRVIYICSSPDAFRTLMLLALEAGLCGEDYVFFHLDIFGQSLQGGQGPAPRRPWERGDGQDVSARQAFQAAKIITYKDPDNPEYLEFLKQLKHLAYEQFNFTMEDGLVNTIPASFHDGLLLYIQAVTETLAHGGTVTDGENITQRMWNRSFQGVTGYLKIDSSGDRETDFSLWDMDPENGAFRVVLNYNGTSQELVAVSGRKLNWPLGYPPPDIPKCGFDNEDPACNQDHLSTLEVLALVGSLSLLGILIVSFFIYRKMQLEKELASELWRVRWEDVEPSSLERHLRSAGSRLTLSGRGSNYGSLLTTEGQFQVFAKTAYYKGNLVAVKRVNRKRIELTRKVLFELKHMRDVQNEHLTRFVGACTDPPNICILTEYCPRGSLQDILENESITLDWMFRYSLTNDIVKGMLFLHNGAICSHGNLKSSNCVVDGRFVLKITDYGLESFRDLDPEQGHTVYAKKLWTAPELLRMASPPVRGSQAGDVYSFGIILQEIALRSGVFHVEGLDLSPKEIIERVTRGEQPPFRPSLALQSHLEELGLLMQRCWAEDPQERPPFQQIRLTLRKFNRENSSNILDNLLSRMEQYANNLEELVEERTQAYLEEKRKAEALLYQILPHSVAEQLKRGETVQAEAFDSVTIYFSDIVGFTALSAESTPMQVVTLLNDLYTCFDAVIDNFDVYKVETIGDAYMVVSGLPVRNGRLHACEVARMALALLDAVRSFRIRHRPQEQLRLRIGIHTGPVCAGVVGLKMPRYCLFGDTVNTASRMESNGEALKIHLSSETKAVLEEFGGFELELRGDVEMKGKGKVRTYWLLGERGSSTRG
T1 sequence (peptide): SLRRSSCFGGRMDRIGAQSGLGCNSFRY
The experiment is described as follows: cell-based or functional assay.

In experiment [2] the target is T2, NPRA-Fc fusion protein bound to ANP (human, UniProt P01160 124-151).
T2 construct: mature; Receptor-ligand complex; 'human ANP' is stated for Biacore, plain 'ANP' for ELISA and HXMS; also called NPRA-Fc+ANP
Put plainly: SPR (Biacore 3000), NPRA-Fc amine-coupled on CM5, analyte with 100 nM human ANP. Background: SPR reads the build-up and loss of mass on a sensor chip optically.

B1: 5502 Fab (Fab, V domains shown)
VH: QVQLQQSGPGLVKPSQTLSLTCAISGDSVSSRSASWSWIRQSPGRGLEWLGRIYYRSKWYNDYAVSVKSRITINPDTSKNQFSLQLNSVTPEDTAVYYCARMDVPSFRYFDVWGQGTLVTVSS
VL: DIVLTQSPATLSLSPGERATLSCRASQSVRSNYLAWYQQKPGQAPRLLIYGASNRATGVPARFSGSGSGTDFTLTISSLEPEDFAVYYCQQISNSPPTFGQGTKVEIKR
B1: in experiment [1], the “EC50 of ANP, cGMP production in HEK NPRA cells, with 400 nM Fab” value came to 0.3 nM and the “factor by which the potency of ANP is enhanced (cGMP, 400 nM Fab)” value turned out to be 10 fold.

B2: 5591 Fab (Fab, V domains shown)
VH: QVQLQQSGPGLVKPSQTLSLTCAISGDSVSSRSASWSWIRQSPGRGLEWLGRTYYRSHWYYEYAQSVKSRITINPDTSKNQFSLQLNSVTPEDTAVYYCARMDVPSFRYFDVWGQGTLVTVSS
VL: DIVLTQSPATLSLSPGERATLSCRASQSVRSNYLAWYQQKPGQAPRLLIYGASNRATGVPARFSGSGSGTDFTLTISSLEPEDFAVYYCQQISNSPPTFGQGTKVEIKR
Take B2: in experiment [2], binding was characterised by a dissociation constant (Kd) of 1.16 nM; the koff (in general, a measure of how fast the partners let go of each other) was determined as 0.00103 s⁻¹; the kon (usually the second-order rate constant of association) came out at 884000 M⁻¹ s⁻¹.
